The test concerns the target mitoribosomal protein uS12m (human (endogenous in HEK293T), UniProt O15235 30-138). Nature of the test: cryo-EM structure; recombinant mtIF2 (1 µM) preincubated with GDPNP (2.5 mM), added to the mtIF3-bound mtSSU eluate with fMet-tRNA (1 µM) and MT-CO2 mRNA (1 µM), 30 min at room temperature, buffer A (25 mM HEPES-KOH pH 7.5, 5.0 mM Mg(OAc)2, 100 mM KCl, 0.05% β-DDM). As to conditions: both partners purified.

B1: recombinant human mtIF2 (amino acids 38-727) (natural protein)
chain: SSAYPVWTAQLCAWPWPTDVLTGAALSQYRLLVTKKEEGPWKSQLSSTKSKKVVEVWIGMTIEELARAMEKNTDYVYEALLNTDIDIDSLEADSHLDEVWIKEVITKAGMKLKWSKLKQDKVRKNKDAVRRPQADPALLTPRSPVVTIMGHVDHGKTTLLDKFRKTQVAAVETGGITQHIGAFLVSLPSGEKITFLDTPGHAAFSAMRARGAQVTDIVVLVVAADDGVMKQTVESIQHAKDAQVPIILAVNKCDKAEADPEKVKKELLAYDVVCEDYGGDVQAVPVSALTGDNLMALAEATVALAEMLELKADPNGPVEGTVIESFTDKGRGLVTTAIIQRGTLRKGSVLVAGKCWAKVRLMFDENGKTIDEAYPSMPVGITGWRDLPSAGEEILEVESEPRAREVVDWRKYEQEQEKGQEDLKIIEEKRKEHKEAHQKAREKYGHLLWKKRSILRFLERKEQIPLKPKEKRERDSNVLSVIIKGDVDGSVEAILNIIDTYDASHECELELVHFGVGDVSANDVNLAETFDGVIYGFNVNAGNVIQQSAAKKGVKIKLHKIIYRLVEDLQEELSSRLPCAVEEHPVGEASILATFSVTEGKKKVPVAGCRVQKGQLEKQKKFKLTRNGHVIWKGSLTSLKHHKDDISIVKTGMDCGLSLDEDNMEFQVGDRIVCYEEKQIQAKTSWDPGF
notes: mitochondrial translation initiation factor 2 (mtIF2), human, mature form, amino acids 38-727, codon-optimised construct in pET-24b; also called mtIF2-GDPNP; source: E. coli Rosetta 2, purified (His-Select Ni2+ resin, Superdex 200)
On to B1, for which the binding result is reported as “binds”.

Values taken from publication PMC7287080, “Distinct pre-initiation steps in human mitochondrial translation” (Nature Communications, 2020).
